Blank lines part the entries; values can stand above or below the binder they belong to. Non-standard residues stand in square brackets, D forms with d. Nle = CCCC[C@H](N)C(=O)O; Aib = CC(C)(N)C(=O)O
Biological target: T1, RXFP1 receptor (UniProt Q9HBX9 1-757, limits assumed)
T1 sequence (looked up): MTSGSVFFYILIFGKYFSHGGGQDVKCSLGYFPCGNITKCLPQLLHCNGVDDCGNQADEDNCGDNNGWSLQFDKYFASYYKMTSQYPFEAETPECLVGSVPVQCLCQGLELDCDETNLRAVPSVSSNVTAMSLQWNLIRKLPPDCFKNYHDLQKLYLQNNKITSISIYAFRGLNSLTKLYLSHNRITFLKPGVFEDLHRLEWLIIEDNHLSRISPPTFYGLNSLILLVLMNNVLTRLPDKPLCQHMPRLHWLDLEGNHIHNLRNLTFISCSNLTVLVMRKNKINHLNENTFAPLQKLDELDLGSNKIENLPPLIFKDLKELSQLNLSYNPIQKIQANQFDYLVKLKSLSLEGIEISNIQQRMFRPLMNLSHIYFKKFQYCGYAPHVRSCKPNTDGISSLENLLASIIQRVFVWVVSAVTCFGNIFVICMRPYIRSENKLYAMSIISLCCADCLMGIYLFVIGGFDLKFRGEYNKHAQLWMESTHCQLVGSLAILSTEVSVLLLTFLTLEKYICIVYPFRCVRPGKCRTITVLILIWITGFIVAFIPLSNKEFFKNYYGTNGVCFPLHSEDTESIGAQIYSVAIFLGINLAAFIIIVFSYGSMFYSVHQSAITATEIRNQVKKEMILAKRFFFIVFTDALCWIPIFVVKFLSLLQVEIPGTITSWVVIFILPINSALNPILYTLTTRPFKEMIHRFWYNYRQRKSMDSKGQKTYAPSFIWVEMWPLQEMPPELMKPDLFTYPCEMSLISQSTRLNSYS
Assay: cell-based or functional assay

cAMP assay in OVCAR 5 cells EC50: 4.2 nM
cAMP assay in OVCAR 5 cells Emax: 100%
B5: SEQ ID NO: 25 (peptide)
peptide: Ac-LEGREKVRAK(Ac)I[Aib][Aib]EG[Nle]STWSK(Ac)RKKK-NH2
SMILES: CCCC[C@H](NC(=O)CNC(=O)[C@H](CCC(=O)O)NC(=O)C(C)(C)NC(=O)C(C)(C)NC(=O)[C@@H](NC(=O)[C@H](CCCCNC(C)=O)NC(=O)[C@H](C)NC(=O)[C@H](CCCNC(=N)N)NC(=O)[C@@H](NC(=O)[C@H](CCCCN)NC(=O)[C@H](CCC(=O)O)NC(=O)[C@H](CCCNC(=N)N)NC(=O)CNC(=O)[C@H](CCC(=O)O)NC(=O)[C@H](CC(C)C)NC(C)=O)C(C)C)[C@@H](C)CC)C(=O)N[C@@H](CO)C(=O)N[C@H](C(=O)N[C@@H](Cc1c[nH]c2ccccc12)C(=O)N[C@@H](CO)C(=O)N[C@@H](CCCCNC(C)=O)C(=O)N[C@@H](CCCNC(=N)N)C(=O)N[C@@H](CCCCN)C(=O)N[C@@H](CCCCN)C(=O)N[C@@H](CCCCN)C(N)=O)[C@@H](C)O

cAMP assay in OVCAR 5 cells EC50: 47.9 nM
cAMP assay in OVCAR 5 cells Emax: 92%
B6: SEQ ID NO: 24 (peptide)
peptide: Ac-LEGREKVRAK(Ac)I[Aib][Aib]EG[Nle]STWS[Aib]RKK-NH2
SMILES: CCCC[C@H](NC(=O)CNC(=O)[C@H](CCC(=O)O)NC(=O)C(C)(C)NC(=O)C(C)(C)NC(=O)[C@@H](NC(=O)[C@H](CCCCNC(C)=O)NC(=O)[C@H](C)NC(=O)[C@H](CCCNC(=N)N)NC(=O)[C@@H](NC(=O)[C@H](CCCCN)NC(=O)[C@H](CCC(=O)O)NC(=O)[C@H](CCCNC(=N)N)NC(=O)CNC(=O)[C@H](CCC(=O)O)NC(=O)[C@H](CC(C)C)NC(C)=O)C(C)C)[C@@H](C)CC)C(=O)N[C@@H](CO)C(=O)N[C@H](C(=O)N[C@@H](Cc1c[nH]c2ccccc12)C(=O)N[C@@H](CO)C(=O)NC(C)(C)C(=O)N[C@@H](CCCNC(=N)N)C(=O)N[C@@H](CCCCN)C(=O)N[C@@H](CCCCN)C(N)=O)[C@@H](C)O

cAMP assay in OVCAR 5 cells EC50: 14.5 nM
cAMP assay in OVCAR 5 cells Emax: 100%
B7: SEQ ID NO: 26 (peptide)
peptide: Ac-LEGREKVRAK(Ac)I[Aib][Aib]EG[Nle]STWSK(Ac)RKKK(Ac)-NH2
SMILES: CCCC[C@H](NC(=O)CNC(=O)[C@H](CCC(=O)O)NC(=O)C(C)(C)NC(=O)C(C)(C)NC(=O)[C@@H](NC(=O)[C@H](CCCCNC(C)=O)NC(=O)[C@H](C)NC(=O)[C@H](CCCNC(=N)N)NC(=O)[C@@H](NC(=O)[C@H](CCCCN)NC(=O)[C@H](CCC(=O)O)NC(=O)[C@H](CCCNC(=N)N)NC(=O)CNC(=O)[C@H](CCC(=O)O)NC(=O)[C@H](CC(C)C)NC(C)=O)C(C)C)[C@@H](C)CC)C(=O)N[C@@H](CO)C(=O)N[C@H](C(=O)N[C@@H](Cc1c[nH]c2ccccc12)C(=O)N[C@@H](CO)C(=O)N[C@@H](CCCCNC(C)=O)C(=O)N[C@@H](CCCNC(=N)N)C(=O)N[C@@H](CCCCN)C(=O)N[C@@H](CCCCN)C(=O)N[C@@H](CCCCNC(C)=O)C(N)=O)[C@@H](C)O

The next lines start with the binder.

B1: SEQ ID NO: 23 (peptide)
peptide: Ac-LEGREKVRAQI[Aib][Aib]EG[Nle]STWT[Aib]RKK-NH2
SMILES: CCCC[C@H](NC(=O)CNC(=O)[C@H](CCC(=O)O)NC(=O)C(C)(C)NC(=O)C(C)(C)NC(=O)[C@@H](NC(=O)[C@H](CCC(N)=O)NC(=O)[C@H](C)NC(=O)[C@H](CCCNC(=N)N)NC(=O)[C@@H](NC(=O)[C@H](CCCCN)NC(=O)[C@H](CCC(=O)O)NC(=O)[C@H](CCCNC(=N)N)NC(=O)CNC(=O)[C@H](CCC(=O)O)NC(=O)[C@H](CC(C)C)NC(C)=O)C(C)C)[C@@H](C)CC)C(=O)N[C@@H](CO)C(=O)N[C@H](C(=O)N[C@@H](Cc1c[nH]c2ccccc12)C(=O)N[C@H](C(=O)NC(C)(C)C(=O)N[C@@H](CCCNC(=N)N)C(=O)N[C@@H](CCCCN)C(=O)N[C@@H](CCCCN)C(N)=O)[C@@H](C)O)[C@@H](C)O
cAMP assay in OVCAR 5 cells EC50: 128 nM
cAMP assay in OVCAR 5 cells Emax: 95%

B2: SEQ ID NO: 3 (peptide)
peptide: Ac-LEGREKVRAQI[Aib][Aib]EG[Nle]STWS[Aib]RKK-NH2
SMILES: CCCC[C@H](NC(=O)CNC(=O)[C@H](CCC(=O)O)NC(=O)C(C)(C)NC(=O)C(C)(C)NC(=O)[C@@H](NC(=O)[C@H](CCC(N)=O)NC(=O)[C@H](C)NC(=O)[C@H](CCCNC(=N)N)NC(=O)[C@@H](NC(=O)[C@H](CCCCN)NC(=O)[C@H](CCC(=O)O)NC(=O)[C@H](CCCNC(=N)N)NC(=O)CNC(=O)[C@H](CCC(=O)O)NC(=O)[C@H](CC(C)C)NC(C)=O)C(C)C)[C@@H](C)CC)C(=O)N[C@@H](CO)C(=O)N[C@H](C(=O)N[C@@H](Cc1c[nH]c2ccccc12)C(=O)N[C@@H](CO)C(=O)NC(C)(C)C(=O)N[C@@H](CCCNC(=N)N)C(=O)N[C@@H](CCCCN)C(=O)N[C@@H](CCCCN)C(N)=O)[C@@H](C)O
cAMP assay in OVCAR 5 cells EC50: 12 nM
cAMP assay in OVCAR 5 cells Emax: 97%

B3: SEQ ID NO: 22 (peptide)
peptide: Ac-LEGREKVRAQI[Aib][Aib]EG[Nle]STWA[Aib]RKK-NH2
SMILES: CCCC[C@H](NC(=O)CNC(=O)[C@H](CCC(=O)O)NC(=O)C(C)(C)NC(=O)C(C)(C)NC(=O)[C@@H](NC(=O)[C@H](CCC(N)=O)NC(=O)[C@H](C)NC(=O)[C@H](CCCNC(=N)N)NC(=O)[C@@H](NC(=O)[C@H](CCCCN)NC(=O)[C@H](CCC(=O)O)NC(=O)[C@H](CCCNC(=N)N)NC(=O)CNC(=O)[C@H](CCC(=O)O)NC(=O)[C@H](CC(C)C)NC(C)=O)C(C)C)[C@@H](C)CC)C(=O)N[C@@H](CO)C(=O)N[C@H](C(=O)N[C@@H](Cc1c[nH]c2ccccc12)C(=O)N[C@@H](C)C(=O)NC(C)(C)C(=O)N[C@@H](CCCNC(=N)N)C(=O)N[C@@H](CCCCN)C(=O)N[C@@H](CCCCN)C(N)=O)[C@@H](C)O
cAMP assay in OVCAR 5 cells EC50: 57.1 nM
cAMP assay in OVCAR 5 cells Emax: 102%

B4: SEQ ID NO: 21 (peptide)
peptide: Ac-LEGREKVRAQI[Aib][Aib]EG[Nle]STWS[Aib]RKK(Ac)-NH2
SMILES: CCCC[C@H](NC(=O)CNC(=O)[C@H](CCC(=O)O)NC(=O)C(C)(C)NC(=O)C(C)(C)NC(=O)[C@@H](NC(=O)[C@H](CCC(N)=O)NC(=O)[C@H](C)NC(=O)[C@H](CCCNC(=N)N)NC(=O)[C@@H](NC(=O)[C@H](CCCCN)NC(=O)[C@H](CCC(=O)O)NC(=O)[C@H](CCCNC(=N)N)NC(=O)CNC(=O)[C@H](CCC(=O)O)NC(=O)[C@H](CC(C)C)NC(C)=O)C(C)C)[C@@H](C)CC)C(=O)N[C@@H](CO)C(=O)N[C@H](C(=O)N[C@@H](Cc1c[nH]c2ccccc12)C(=O)N[C@@H](CO)C(=O)NC(C)(C)C(=O)N[C@@H](CCCNC(=N)N)C(=O)N[C@@H](CCCCN)C(=O)N[C@@H](CCCCNC(C)=O)C(N)=O)[C@@H](C)O
cAMP assay in OVCAR 5 cells EC50: 32.8 nM
cAMP assay in OVCAR 5 cells Emax: 96%
